Our source for the optical density values is patent US20210380703A1 (RIGEL PHARMACEUTICALS, published 2021).

In one experiment the target is T1, human ACVR2A (human, UniProt P27037 20-135, limits assumed).
T1 construct: also called activin receptor, type II A
The experiment in a line: ELISA. The method in brief:
(§1)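 Binding signal was read by ELISA after ACVR2A-specific monoclonal antibodies were tested against human ACVR2A and mouse ACVR2A, with human Fc as the negative control.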
On the technique in general: An ELISA detects its analyte on a solid surface through an enzyme-linked reagent.

A further experiment has as its target mouse ACVR2A (mouse, UniProt P27038 20-135, limits assumed). Put plainly: ELISA. The method in brief:
as §1

For experiment [1], the target named is T2, biotinylated goat anti-human kappa light chain.
T2 construct: positive control of the ELISA
Put plainly: ELISA, positive control. The method in brief: as §1
Also: test concentration or dose not given here.

T1 sequence (P27037 20-135 limits assumed): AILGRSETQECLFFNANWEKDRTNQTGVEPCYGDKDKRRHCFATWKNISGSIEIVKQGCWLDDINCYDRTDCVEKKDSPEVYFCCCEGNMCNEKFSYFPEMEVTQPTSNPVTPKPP
mouse ACVR2A, sequence (P27038 20-135 limits assumed): as the sequence (P27037 20-135 limits assumed) above, with K20R, V73I counted along it

B1: 367_C06 (antibody, V domains shown)
VH: EVQLLESGGGLVQPGGSLRLSCAASGFTFDSYSMHWVRQAPGKGLEWVASINYNGGYKSYADSVKGRFTISRDNSKNTLYLQMNSLRAEDTAVYYCARAATWHDTHLDYWGQGTLVTVSS
VL: DIQMTQSPSSLSASVGDRVTITCRASQSILTYLNWYQQKPGKAPKLVIYAATSLHSGVPSRFSGSGSGTDFTLTISSLQPEDFATYYCQQSYDTPLTFGGGTKVEIK
notes: Group II
For B1, the optical density was found to be 2.12 OD with human ACVR2A, 2.51 OD in the experiment with mouse ACVR2A and 3.5 OD in experiment [1].

B2: 367_F06 (antibody, V domains shown)
VH: EVQLLESGGGLVQPGGSLRLSCAASGFTFSSYGMNWVRQAPGKGLEWVSSINYNSGYTSYADSVKGRFTISRDNSKNTLYLQMNSLRAEDTAVYYCARAANWHDTALDYWGQGTLVTVSS
VL: DIQMTQSPSSLSASVGDRVTITCRASQSISSYVNWYQQKPGKAPKLLIYAVTSRASGVPSRFSGSGSGTDFTLTISSLQPEDFATYYCQQSYDSPLTFGGGTKVEIK
notes: Group I
Consider B2, for which the optical density with human ACVR2A was 2.01 OD; with mouse ACVR2A, 2.04 OD; in experiment [1] it was 3.35 OD.

B3: 367_C12 (antibody, V domains shown)
VH: EVQLLESGGGLVQPGGSLRLSCAASGFTFSSYGMHWVRQAPGKGLEWVSGINYNGGYTSYADSVKGRFTISRDNSKNTLYLQMNSLRAEDTAVYYCARAATWHDTHLDYWGQGTLVTVSS
VL: DIQMTQSPSSLSASVGDRVTITCRASQSILSYVNWYQQKPGKAPKLLIYATTSRHSGVPSRFSGSGSGTDFTLTISSLQPEDFATYYCQQSYESPLTFGGGTKVEIK
notes: Group II
For the molecule B3, the optical density in the experiment with human ACVR2A worked out at 2.06 OD; with mouse ACVR2A, 2.1 OD; in experiment [1], 3.58 OD.

B4: 367_C09 (antibody, V domains shown)
VH: EVQLLESGGGLVQPGGSLRLSCAASGFTFDSYGMHWVRQAPGKGLEWVASINYNGGYTSYADSVKGRFTISRDNSKNTLYLQMNSLRAEDTAVYYCARAANWHDTHLDYWGQGTLVTVSS
VL: DIQMTQSPSSLSASVGDRVTITCRASQSILSYVNWYQQKPGKAPKLVIYAATSRHSGVPSRFSGSGSGTDFTLTISSLQPEDFATYYCQQSYNTPLTFGGGTKVEIK
notes: Group I
For the molecule B4, the optical density was 2.41 OD in the experiment with human ACVR2A, 2.77 OD with mouse ACVR2A and 3.44 OD in experiment [1].

B5: 367_D11 (antibody, V domains shown)
VH: EVQLLESGGGLVQPGGSLRLSCAASGFTFDSYGMHWVRQAPGKGLEWVSNINYNGGYKSYADSVKGRFTISRDNSKNTLYLQMNSLRAEDTAVYYCARAANWHDTALDYWGQGTLVTVSS
VL: DIQMTQSPSSLSASVGDRVTITCRASQSIISYLNWYQQKPGKAPKLLIYAATSRASGVPSRFSGSGSGTDFTLTISSLQPEDFATYYCQQSYDSPLTFGGGTKVEIK
notes: Group I
On to B5, for which the optical density with human ACVR2A stood at 2.4 OD; with mouse ACVR2A, 2.54 OD; in experiment [1], 3.39 OD.

B6: 367_E08 (antibody, V domains shown)
VH: EVQLLESGGGLVQPGGSLRLSCAASGFTFSDYGMNWVRQAPGKGLEWVASINYNGGYTSYADSVKGRFTISRDNSKNTLYLQMNSLRAEDTAVYYCARAATWHDTHLDYWGQGTLVTVSS
VL: DIQMTQSPSSLSASVGDRVTITCRASQSILSYLNWYQQKPGKAPKLLIYATTSRASGVPSRFSGSGSGTDFTLTISSLQPEDFATYYCQQSYDNPLTFGGGTKVEIK
notes: Group II
Regarding B6, the figures for the optical density (in the experiment with human ACVR2A; in the experiment with mouse ACVR2A; in experiment [1]) were 2.04 OD, 2.37 OD and 3.43 OD, respectively.

B7: 367_E10 (antibody, V domains shown)
VH: EVQLLESGGGLVQPGGSLRLSCAASGFTFSSYGMHWVRQAPGKGLEWVSSINYNGGYTGYADSVKGRFTISRDNSKNTLYLQMNSLRAEDTAVYYCARAATWHDTHLDYWGQGTLVTVSS
VL: DIQMTQSPSSLSASVGDRVTITCRASQSILSYVNWYQQKPGKAPKLLIYAATSRASGVPSRFSGSGSGTDFTLTISSLQPEDFATYYCQQSYELPLTFGGGTKVEIK
notes: Group II
For the molecule B7, the optical density with human ACVR2A is 2.77 OD; in the experiment with mouse ACVR2A it was 2.98 OD; in experiment [1], 3.48 OD.
